# Data: publication PMC9427789
# Substitutions are numbered along the chain they refer to. Names and notes keep the numbering of the source.
# B1: mouse FGF23 (wild type), Q9EPC2 T76R (protein)
# chain: YPDTSPLLGSNWGSLTHLYTATARTSYHLQIHRDGHVDGTPHQTIYSALMIRSEDAGSVVITGAMTRRFLCMDLHGNIFGSLHFSPENCKFRQWTLENGYDVYLSQKHHYLVSLGRAKRIFQPGTNPPPFSQFLARRNEVPLLHFYTVRPRRHTR
# B2: mouse FGF23 (wild type), Q9EPC2 A159S (protein)
# chain: B1 chain with R52T, A135S
# B3: mouse FGF23 (wild type), Q9EPC2 Q117H (protein)
# chain: B1 chain with R52T, Q93H
# B4: mouse FGF23 (wild type), Q9EPC2 T49N (protein)
# chain: B1 chain with T25N, R52T
# B5: mouse FGF23 (wild type), Q9EPC2 Q117H; A159S (protein)
# chain: YPDTSPLLGSNWGSLTHLYTATARTSYHLQIHRDGHVDGTPHQTIYSALMITSEDAGSVVITGAMTRRFLCMDLHGNIFGSLHFSPENCKFRHWTLENGYDVYLSQKHHYLVSLGRAKRIFQPGTNPPPFSQFLSRRNEVPLLHFYTVRPRRHTRSAEDPPERDPLNVLKPRPRATPVPVSCSRELPSAEEGGPAASDPLGVLRRGRGDARGGAGGADRCRPFPRFV
# B6: mouse FGF23 (wild type), Q9EPC2 T49N; Q117H; A159S (protein)
# chain: B5 chain with T25N
# B7: mouse FGF23 (wild type), Q9EPC2 T49N; T76R; Q117H; A159S (protein)
# chain: B5 chain with T25N, T52R
# B8: His-SUMO-FGF23 (N-terminal domain of human FGF23, wild type), Q9GZV9 R48A (protein)
# chain: YPNASPLLGSSWGGLIHLYTATAANSYHLQIHKNGHVDGAPHQTIYSALMIRSEDAGFVVITGVMSRRYLCMDFRGNIFGSHYFDPENCRFQHQTLENGYDVYHSPQYHFLVSLGRAKRAFLPGMNPPPYSQFLSRRNEIPLIHFNTPIPRRHTRSAEDDSERDPLNVLKPRARMTPAPA
# B9: His-SUMO-FGF23 (N-terminal domain of human FGF23, wild type), Q9GZV9 R99A (protein)
# chain: B8 chain with A24R, R75A
# B10: His-SUMO-FGF23 (N-terminal domain of human FGF23, wild type), Q9GZV9 F82A (protein)
# chain: B8 chain with A24R, F58A
# B11: His-SUMO-FGF23 (N-terminal domain of human FGF23, wild type), Q9GZV9 Y43A (protein)
# chain: B8 chain with Y19A, A24R
# B12: His-SUMO-FGF23 (N-terminal domain of human FGF23, wild type), Q9GZV9 Y70A (protein)
# chain: B8 chain with A24R, Y46A
# B13: His-SUMO-FGF23 (N-terminal domain of human FGF23, wild type), Q9GZV9 R76A (protein)
# chain: B8 chain with A24R, R52A
# B14: His-SUMO-FGF23 (N-terminal domain of human FGF23, wild type), Q9GZV9 Y107A (protein)
# chain: B8 chain with A24R, Y83A
# B15: His-SUMO-FGF23 (N-terminal domain of human FGF23, wild type), Q9GZV9 E121A (protein)
# chain: B8 chain with A24R, E97A
# B16: His-SUMO-FGF23 (N-terminal domain of human FGF23, wild type), Q9GZV9 H133A (protein)
# chain: B8 chain with A24R, H109A
# B17: His-SUMO-FGF23 (N-terminal domain of human FGF23, wild type), Q9GZV9 H52A (protein)
# chain: B8 chain with A24R, H28A
# B18: His-SUMO-FGF23 (N-terminal domain of human FGF23, wild type), Q9GZV9 F108A (protein)
# chain: B8 chain with A24R, F84A
# B19: Burosumab (wild type) (antibody, V domains shown)
# VH: QVQLVQSGAEVKKPGASVKVSCKASGYTFTNHYMHWVRQAPGQGLEWMGIINPISGSTSNAQKFQGRVTMTRDTSTSTVYMELSSLRSEDTAVYYCARDIVDAFDFWGQGTMVTVSS
# VL: AIQLTQSPSSLSASVGDRVTITCRASQGISSALVWYQQKPGKAPKLLIYDASSLESGVPSRFSGSGSGTDFTLTISSLQPEDFATYYCQQFNDYFTFGPGTKVDIK
# Target: Burosumab (wild type)
# Assay: indirect ELISA
# Settings: chain shown with the change; level of the fitted curve at the highest mAb concentration, log [µg/mL] = 0.5; parent: est. 0.57; read off a plot
row,response [A450],Binder
1,0.78,B1
2,0.4,B2
3,0.78,B3
4,0.59,B4
5,0.8,B5
6,0.98,B6
7,0.9,B7

# Same assay, conditions: chain shown with the change;; read off a plot
row,ratio to parent,Binder
1,1,B8
2,1.4,B9
3,1.1,B10
4,1.7,B11
5,1.8,B12
6,8.2,B13
7,1.4,B14
8,1,B15
9,2.2,B16
10,9,B17
11,6.2,B18

# Target: alanine substitution at H52, R76, F108 residues of FGF23 (three single mutants, as a group) (human)
# Assay: ELISA; indirect ELISA: FGF23 or its mutants coated at 2 µg/mL on Maxisorp plates (4 °C overnight), Burosumab or its variants three-fold serially diluted in PBS from 9 µg/mL, room temperature 2 h, anti-human IgG H&L-HRP, A450; fold change from Kd values against the wild type
# Settings: not given
row,fold decrease in binding against wild-type FGF23 [fold],Binder
1,7 to 10,B19
